# Laboratory results as given in patent US20200317768A1 (published 2020).
# Residue numbers refer to the chain shown, from its start.
# T1: Cynomolgus monkey latent myostatin (cynomolgus monkey, UniProt Q95J86 25-266; Q95J86 267-375)
# T1 construct: signal 1-24; also called Cyno latent myostatin
# T1 sequence 1: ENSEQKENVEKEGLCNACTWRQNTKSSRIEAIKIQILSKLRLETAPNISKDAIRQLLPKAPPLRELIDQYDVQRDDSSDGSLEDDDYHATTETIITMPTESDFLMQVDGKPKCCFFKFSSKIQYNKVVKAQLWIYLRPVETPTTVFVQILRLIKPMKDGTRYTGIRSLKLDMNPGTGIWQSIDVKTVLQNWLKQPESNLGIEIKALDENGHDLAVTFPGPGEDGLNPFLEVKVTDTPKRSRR
# T1 sequence 2: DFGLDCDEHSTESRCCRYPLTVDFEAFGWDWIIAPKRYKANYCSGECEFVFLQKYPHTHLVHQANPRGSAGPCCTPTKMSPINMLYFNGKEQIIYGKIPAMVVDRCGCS
# T2: Human latent myostatin (human, UniProt O14793 25-266; O14793 267-375)
# T2 construct: Biotinylated in the ELISAs; also called human myostatin latent form
# T2 sequence 1: T1 sequence 1 with A52V
# T2 sequence 2: T1 sequence 2
# T3: Mouse latent myostatin (mouse, UniProt O08689 26-267; O08689 268-376)
# T3 construct: signal 1-24
# T3 sequence 1: T1 sequence 1 with N2G, Q5R, K6E, T19A, K25R, S26Y, K59R, V107A, E140K, N173S
# T3 sequence 2: T1 sequence 2
# T4: human FcγRIIaR extracellular domain with C-terminal His-tag (human, UniProt P12318 34-217)
# T4 construct: Expressed in FreeStyle 293 cells and purified; also called human FcγRIIa (type R); FcgRIIaR; not shown: C-terminal His-tag
# T4 chain: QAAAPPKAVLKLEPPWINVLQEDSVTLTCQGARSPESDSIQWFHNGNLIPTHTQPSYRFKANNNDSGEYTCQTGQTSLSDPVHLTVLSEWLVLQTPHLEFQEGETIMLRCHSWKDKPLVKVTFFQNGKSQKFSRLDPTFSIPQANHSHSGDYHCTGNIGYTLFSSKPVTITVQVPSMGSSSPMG
# B1: MS_M103205H000-SG1/M103202LO00-SK1 (antibody, human IgG1, kappa, V domains shown)
# VH: QVTLKESGPVLVKPTETLTLTCTVSGIDLSSYDISWVRQAPGKGLEWVGIISYAGSTYYASWAKGRLTISKDTSKNQVVLTMTNMDPVDTATYYCARGVPAYSTGGDLWGQGTLVTVSS
# VL: DIVMTQSPATLSLSPGERATLSCQSSQSVYDNNWLSWFQQKPGQPPKLLIYWASTLASGVPSRFSGSGSGTDFTLTISSLQPEDAATYYCAGGYGGGLYAFGQGTKVEIKR
# notes: Humanized MST1032, not pH-dependent; also called MS1032LO00-SG1; Ab001
# B2: M103205H795-MY172 / M103202L889-SK1 (antibody, human IgG1, kappa)
# heavy: QVTLKESGPVLVKPTETLTLTCTVSGIDLSHDDISWVRQAPGKGLEWVGIISYAGSTYYASWAKGRLTISKDTSKNQVVLTMTNMDPVDTATYYCARGVPAYSHGGDLWGQGTLVTVSSASTKGPSVFPLAPSSKSTSGGTAALGCLVKDYFPEPVTVSWNSGALTSGVHTFPAVLQSSGLYSLSSVVTVPSSSLGTQTYICNVNHKPSNTKVDKKVEPKSCDKTHTCPPCPAPELLNGPSVFLFPPKPKDTLMISRTPEVTCVVVDVSEEDPEVKFNWYVDGVEVHNAKTKPREEQYNSTYRVVSVLTVLHQDWLNGKEYKCKVSNKALPAPIEKTISKAKGQPREPQVYTLPPSREEMTKNQVSLTCLVKGFYPSDIAVEWESNGQPENNYKTTPGVLDSDGSFFLYSKLTVDKSRWQQGNVFSCSVMHEALHNHYTQKSLSLSP
# light: DIVMTQSPATLSLSPGERATLSCTSSQSVYHANWLSWFQQKPGQPPKLLIYWASTLAYGVPSRFSGSGSGTDFTLTISSLQPEDAATYYCAGGYGGGRYAFGQGTKVEIKRTVAAPSVFIFPPSDEQLKSGTASVVCLLNNFYPREAKVQWKVDNALQSGNSQESVTEQDSKDSTYSLSSTLTLSKADYEKHKVYACEVTHQGLSSPVTKSFNRGEC
# notes: Position 396 variant derived from MY052, expressed with M103202L889-SK1 as light chain
# B3: M103205H795-MY173 / M103202L889-SK1 (antibody, human IgG1, kappa)
# heavy: B2 heavy with G398H
# light: B2 light
# notes: as for B2
# B4: M103205H795-MY174 / M103202L889-SK1 (antibody, human IgG1, kappa)
# heavy: B2 heavy with G398I
# light: B2 light
# notes: as for B2
# B5: M103205H795-MY175 / M103202L889-SK1 (antibody, human IgG1, kappa)
# heavy: B2 heavy with G398K
# light: B2 light
# notes: as for B2
# B6: M103205H795-MY176 / M103202L889-SK1 (antibody, human IgG1, kappa)
# heavy: B2 heavy with G398L
# light: B2 light
# notes: as for B2
# B7: M103205H795-MY177 / M103202L889-SK1 (antibody, human IgG1, kappa)
# heavy: B2 heavy with G398N
# light: B2 light
# notes: as for B2
# B8: M103205H795-MY178 / M103202L889-SK1 (antibody, human IgG1, kappa)
# heavy: B2 heavy with G398Q
# light: B2 light
# notes: as for B2
# B9: M103205H795-MY179 / M103202L889-SK1 (antibody, human IgG1, kappa)
# heavy: B2 heavy with G398R
# light: B2 light
# notes: as for B2
# B10: M103205H795-MY180 / M103202L889-SK1 (antibody, human IgG1, kappa)
# heavy: B2 heavy with G398S
# light: B2 light
# notes: as for B2
# B11: M103205H795-MY181 / M103202L889-SK1 (antibody, human IgG1, kappa)
# heavy: B2 heavy with G398T
# light: B2 light
# notes: as for B2
# B12: M103205H795-MY182 / M103202L889-SK1 (antibody, human IgG1, kappa)
# heavy: B2 heavy with G398V
# light: B2 light
# notes: as for B2
# B13: M103205H795-MY183 / M103202L889-SK1 (antibody, human IgG1, kappa)
# heavy: B2 heavy with G398W
# light: B2 light
# notes: as for B2
# B14: M103205H795-MY184 / M103202L889-SK1 (antibody, human IgG1, kappa)
# heavy: B2 heavy with G398Y
# light: B2 light
# notes: as for B2
# Tests used:
# [1] = target: T1, Cynomolgus monkey latent myostatin; test: SPR (BIACORE T200), 37 C, pH5.8, avidity condition (capture 185 RU), 1:1 fit; pH 5.8
# Description: (§1) The kinetic parameters of anti-latent myostatin antibodies against human, cynomolgus monkey (cyno), and mouse latent myostatin were assessed at 37° C. at pH7.4 using a BIACORE® T200 instrument (GE Healthcare). ProA/G (Pierce) was immobilized onto all flow cells of a CM4 chip using amine coupling kit (GE Healthcare). Anti-latent myostatin antibody and analytes were prepared in ACES pH7.4 (20 mM ACES, 150 mM NaCl, 1.2 mM CaCl₂), 0.05% TWEEN® 20, 0.005% NaN₃). […] Then human, cyno, or mouse latent myostatin was injected at 3.125 to 50 nM prepared by two-fold serial dilution, followed by dissociation. The sensor surface was regenerated with 25 mM NaOH. Kinetic parameters were determined by processing and fitting the data to a 1:1 binding model using BIACORE® T200 Evaluation software, version 2.0 (GE Healthcare).
# (§2) All experimental settings were the same as in Example 7, except that measurements were also performed in ACES pH5.8 buffer in addition to ACES pH7.4 condition. Some antibodies were only measured against human latent myostatin. Antibody capture level was aimed at 185 RU and 18.5 RU, for avidity and affinity assay, respectively. Kinetic parameters were determined using 1:1 Binding fitting using BIACORE® T200 Evaluation software, version 2.0 (GE Healthcare).
# Human latent myostatin [2] = target: T2, Human latent myostatin; test: as above
# Description: as §1, §2
# Mouse latent myostatin = target: T3, Mouse latent myostatin; test: as above
# Description: as §1, §2
# Human latent myostatin [3] = target: T2, Human latent myostatin; test: SPR (BIACORE) as in Example 7; antigen not given, values equal those for human latent myostatin in Table 7
# Description: as §1
# Humanized antibodies were transiently expressed in FS293-F cells, and HEK Blue Assay and BIACORE® analysis were carried out as described above.
# Human latent myostatin [4] = target: T2, Human latent myostatin; test: SPR (BIACORE T200), 37 C, pH5.8, 1:1 fit; title prints avidity, by the text the affinity condition (capture 18.5 RU); pH 5.8
# Description: as §1, §2
# [5] = target: T4, human FcγRIIaR extracellular domain …; test: SPR (Biacore), antibody captured on chip, FcgR extracellular domain as analyte, 25 C
binder,measurement,setting,value
B1,Kd,[1],0.00883 nM
same,koff,[1],1.58e-05 s⁻¹
same,kon,[1],1.79e+06 M⁻¹ s⁻¹
same,Kd,Human latent myostatin [2],0.0797 nM
same,koff,Human latent myostatin [2],0.000128 s⁻¹
same,kon,Human latent myostatin [2],1.6e+06 M⁻¹ s⁻¹
same,Kd,Mouse latent myostatin,0.0087 nM
same,koff,Mouse latent myostatin,2.02e-05 s⁻¹
same,kon,Mouse latent myostatin,2.32e+06 M⁻¹ s⁻¹
same,Kd,Human latent myostatin [3],0.075 nM
same,koff,Human latent myostatin [3],9.52e-05 s⁻¹
same,kon,Human latent myostatin [3],1.27e+06 M⁻¹ s⁻¹
same,Kd,Human latent myostatin [4],0.215 nM
same,koff,Human latent myostatin [4],0.000235 s⁻¹
same,kon,Human latent myostatin [4],1.09e+06 M⁻¹ s⁻¹
B2,Kd,[5],3100 nM
B3,Kd,[5],1900 nM
B4,Kd,[5],1400 nM
B5,Kd,[5],1800 nM
B6,Kd,[5],1300 nM
B7,Kd,[5],2800 nM
B8,Kd,[5],2300 nM
B9,Kd,[5],2100 nM
B10,Kd,[5],3000 nM
B11,Kd,[5],2500 nM
B12,Kd,[5],2100 nM
B13,Kd,[5],2100 nM
B14,Kd,[5],2000 nM
